Source: US8071547B2, “Compositions of alpha-fetoprotein and inducers of apoptosis for the treatment of cancer” (Constab Pharmaceutical, Inc., priority 2006, dated 2011)
Where two headings read alike, the source gives them in different places.

Legend:
[1] = in the fetus; cited from earlier work
cancer cells [2] = conditions: literature; cited from earlier work
cancer cells [3] = test: Comparison of AFP properties: anticancer activity (Table 1); conditions: applicant's studies (Examples 4 to 8)
Text: The present invention involves the use of exogenous alpha-fetoprotein (AFP) acting as a carrier or transporter of apoptosis-inducing agents directly to cancer cells resulting in the apoptosis of the cancer cells. U.S. Pat. Nos. 6,630,445 and 6,534,479 describe the use of recombinant human AFP for conjugation with cytotoxic agents.
(NCBI Blast analysis is available on the world wide web at ncbi.nlm.nih.gov/blast/; Parker, M. H. et al., Protein Expression and Purification, 38:177-183, 2004).

[4] = test system: monoclonal antibody to HAFP; test: Membrane EIA Alpha-fetoprotein test; format: binding; conditions: compared to human AFP sample
Experimental: (§1) PAFP extracted by the methods detailed above was analyzed using two different immune-enzyme kits in order to detect the presence of PAFP in the extraction obtained from the methods detailed above. PAFP samples were compared to AFP isolated from human serum and amniotic fluid. Initially, samples were subjected to the membrane EIA Alpha-fetoprotein test (catalog #410-1, IND Diagnostic Inc., Vancouver, Canada) which incorporates a monoclonal antibody to HAFP. […] A second test kit incorporating a polyclonal antibody to HAFP (catalog number T-8456, AFP-EIA-BEST-Strip, Vector-BEST, Novosibirsk, Russia) was then used to assay the presence of PAFP in the extraction.

[5] = test system: polyclonal antibody to HAFP; test: AFP-EIA-BEST-Strip test; format: binding
Experimental: as §1

B1: AFP: alpha-fetoprotein, major transport glycoprotein in the fetus (protein, UniProt P02771 19-609, looked up)
Alpha-fetoprotein: RTLHRNEYGIASILDSYQCTAEISLADLATIFFAQFVQEATYKEVSKMVKDALTAIEKPTGDEQSSGCLENQLPAFLEELCHEKEILEKYGHSDCCSQSEEGRHNCFLAHKKPTPASIPLFQVPEPVTSCEAYEEDRETFMNKFIYEIARRHPFLYAPTILLWAARYDKIIPSCCKAENAVECFQTKAATVTKELRESSLLNQHACAVMKNFGTRTFQAITVTKLSQKFTKVNFTEIQKLVLDVAHVHEHCCRGDVLDCLQDGEKIMSYICSQQDTLSNKITECCKLTTLERGQCIIHAENDEKPEGLSPNLNRFLGDRDFNQFSSGEKNIFLASFVHEYSRRHPQLAVSVILRVAKGYQELLEKCFQTENPLECQDKGEEELQKYIQESQALAKRSCGLFQKLGEYYLQNAFLVAYTKKAPQLTSSELMAITRKMAATAATCCQLSEDKLLACGEGAADIIIGHLCIRHEMTPVNPGVGQCCTSSYANRRPCFSSLVVDETYVPPAFSDDKFIFHKDLCQAQGVALQTMKQEFLINLVKQKPQITEEQLEAVIADFSGLLEKCCQGQEQEVCFAEEGQKLISKTRAALGV
For B1, the halflife [1] is given as 72 to 120 h.

B2: HAFP: human alpha-fetoprotein (protein, UniProt P02771 19-609, looked up)
Alpha-fetoprotein: RTLHRNEYGIASILDSYQCTAEISLADLATIFFAQFVQEATYKEVSKMVKDALTAIEKPTGDEQSSGCLENQLPAFLEELCHEKEILEKYGHSDCCSQSEEGRHNCFLAHKKPTPASIPLFQVPEPVTSCEAYEEDRETFMNKFIYEIARRHPFLYAPTILLWAARYDKIIPSCCKAENAVECFQTKAATVTKELRESSLLNQHACAVMKNFGTRTFQAITVTKLSQKFTKVNFTEIQKLVLDVAHVHEHCCRGDVLDCLQDGEKIMSYICSQQDTLSNKITECCKLTTLERGQCIIHAENDEKPEGLSPNLNRFLGDRDFNQFSSGEKNIFLASFVHEYSRRHPQLAVSVILRVAKGYQELLEKCFQTENPLECQDKGEEELQKYIQESQALAKRSCGLFQKLGEYYLQNAFLVAYTKKAPQLTSSELMAITRKMAATAATCCQLSEDKLLACGEGAADIIIGHLCIRHEMTPVNPGVGQCCTSSYANRRPCFSSLVVDETYVPPAFSDDKFIFHKDLCQAQGVALQTMKQEFLINLVKQKPQITEEQLEAVIADFSGLLEKCCQGQEQEVCFAEEGQKLISKTRAALGV
For B2, the “Anticancer activity (AFP-mediated delivery of apoptosis-inducing agent bound to cancer cells)” value (cancer cells [2]) is listed as “Yes”.

B3: PAFP: porcine alpha-fetoprotein, butanol-extracted from blood and amniotic fluid of embryos of 3 to 14 weeks gestation (protein, UniProt Q8MJ76 19-610, looked up)
Alpha-fetoprotein: RTMHENAYGIASILDSSQCSAEMNLVDLATIFFAQFVQEATYKEVNQMVKDVLTVIEKSTGSEQPAGCLENQVSVFLEEICHEEEIPEKYGLSHCCSQSGEERHNCFLARKKAAPASIPPFQVPEPVTSCKAYEENRELFMTRYIYEIARRHPFLYAPTILSLAAQYDKIIPPCCKAENAVECFQTKAASITKELRESSLLNQHMCTVMRQFGARTFRAITVTKLSQKFPKANFTEIQKLVLDVAHIHEECCRGNVLECLQDAERVVSYVCSQQDTLSSKIAECCKLPTTLELGQCIIHAENDDKPEGLSPNLNRFLGERDFNQLSSREKDLSMARFTYEYSRRHPKLAVPVILRVAKGYQELLEKCSQSENPLECQDKGEEELEKYIQESQALAKRSCGLFQKLGEYYLQNAFLVAYTKKAPQLTPPELMALTRKMATTGAACCHLSEDRQLACGEGAADLIIGQLCIRHEEMPINPGVGQCCTSSYANRRPCFSSLVLDETYVPPPFSDDKFIFHKDLCQAQGVALQTMKQQFLINLVKQKPQITEEQLEAVIADFSGLLEKCCQGQEQEVCFAEEGPALISKTRASLGV
With B3 the “Anticancer activity (AFP-mediated delivery of apoptosis-inducing agent bound to cancer cells)” value (cancer cells [3]) was “Yes”, the “Reaction with EIA Alpha-fetoprotein test kit” value [4] was “did not produce a reaction” and the “Reaction with AFP-EIA-BEST-Strip kit” value [5] was “positive reaction”.
